These are literature values, as cited in publication PMC5467299.

For orientation: Kd means the equilibrium constant for the complex coming apart.

One data set has as its target tPA (Homo sapiens) (UniProt P00750).
Data set [1] concerns the target Plasminogen (Homo sapiens) (UniProt P00747).
Chain of UniProt P00747 (P00747 20-810): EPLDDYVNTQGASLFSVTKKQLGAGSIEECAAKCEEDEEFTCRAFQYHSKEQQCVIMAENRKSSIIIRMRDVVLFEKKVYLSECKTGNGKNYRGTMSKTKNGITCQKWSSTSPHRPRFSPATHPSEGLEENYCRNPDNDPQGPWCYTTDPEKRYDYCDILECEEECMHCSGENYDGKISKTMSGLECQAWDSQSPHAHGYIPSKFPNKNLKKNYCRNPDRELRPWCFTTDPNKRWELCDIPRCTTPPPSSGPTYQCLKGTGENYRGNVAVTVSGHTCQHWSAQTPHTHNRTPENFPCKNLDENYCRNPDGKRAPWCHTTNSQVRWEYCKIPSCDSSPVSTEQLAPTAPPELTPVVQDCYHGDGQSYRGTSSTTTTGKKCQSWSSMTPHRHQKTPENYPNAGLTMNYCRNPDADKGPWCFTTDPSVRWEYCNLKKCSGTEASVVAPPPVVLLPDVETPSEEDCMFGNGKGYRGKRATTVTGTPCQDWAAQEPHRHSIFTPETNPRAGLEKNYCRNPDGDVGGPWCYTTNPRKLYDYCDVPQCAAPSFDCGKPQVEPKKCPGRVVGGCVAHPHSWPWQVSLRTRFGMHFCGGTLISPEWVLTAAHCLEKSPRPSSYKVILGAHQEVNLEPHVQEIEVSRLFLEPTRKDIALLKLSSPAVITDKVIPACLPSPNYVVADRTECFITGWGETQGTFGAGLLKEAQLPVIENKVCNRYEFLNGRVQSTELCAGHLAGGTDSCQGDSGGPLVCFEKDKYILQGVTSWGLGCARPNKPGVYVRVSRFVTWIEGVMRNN

Chain of UniProt P00750 (P00750 36-562): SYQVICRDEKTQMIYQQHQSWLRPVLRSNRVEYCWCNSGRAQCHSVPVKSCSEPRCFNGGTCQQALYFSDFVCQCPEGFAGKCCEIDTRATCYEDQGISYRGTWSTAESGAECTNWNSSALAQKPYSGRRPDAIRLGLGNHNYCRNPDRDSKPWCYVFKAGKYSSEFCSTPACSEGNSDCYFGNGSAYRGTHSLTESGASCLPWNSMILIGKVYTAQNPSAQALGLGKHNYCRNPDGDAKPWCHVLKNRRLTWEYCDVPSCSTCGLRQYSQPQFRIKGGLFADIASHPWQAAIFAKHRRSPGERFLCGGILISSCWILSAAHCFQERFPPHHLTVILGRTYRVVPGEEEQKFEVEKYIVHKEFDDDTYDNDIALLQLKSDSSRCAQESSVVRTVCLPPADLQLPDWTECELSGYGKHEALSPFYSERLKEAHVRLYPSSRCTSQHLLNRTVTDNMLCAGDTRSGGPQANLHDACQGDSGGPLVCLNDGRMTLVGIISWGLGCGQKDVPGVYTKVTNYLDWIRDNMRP

For the substance “Fibrin alpha chain 148-160 (from UniProt P02671)”, the Kd (with tPA (Homo sapiens); in data set [1]) was 1 µM throughout.
